Test results reported in publication PMC7335073, “Comprehensive structure-function characterization of DNMT3B and DNMT3A reveals distinctive de novo DNA methylation mechanisms” (Nature Communications, 2020).

Target: the molecule itself
Assay: crystal structure; covalent DNMT3B–DNMT3L–DNA complexes (25-mer Zebularine DNA: CGA, CGT or CAG) with SAH; proteins co-expressed in E. coli and purified as a complex; hanging-drop vapor diffusion, 0.1 M Tris-HCl pH 8.0, MgCl2, PEG, 0.2 mM AdoHcy, 4 °C or 16 °C

| Protein | binding result |
| --- | --- |
| MTase domain of human DNMT3B (residues 562–853) (domain or fragment, UniProt Q9UBC3-1 562-853, looked up, catalytic cysteine C651 covalently linked to the Zebularine of the DNA, Two copies stand in the DNMT3L–DNMT3B–DNMT3B–DNMT3L heterotetramer; also called hDNMT3B; WT DNMT3B; source: E. coli BL21 DE3 (RIL), co-expressed with DNMT3L, purified (Ni-NTA, Heparin HP, SEC; after DNA cross-linking HiTrap Q XL, SEC); not shown: His6, N-terminal, cleaved; SUMO, N-terminal, cleaved) KLYPAIPAARRRPIRVLSLFDGIATGYLVLKELGIKVGKYVASEVCEESIAVGTVKHEGNIKYVNDVRNITKKNIEEWGPFDLVIGGSPCNDLSNVNPARKGLYEGTGRLFFEFYHLLNYSRPKEGDDRPFFWMFENVVAMKVGDKRDISRFLECNPVMIDAIKVSAAHRARYFWGNLPGMNRPVIASKNDKLELQDCLEYNRIAKLKKVQTITTKSNSIKQGKNQLFPVVMNGKEDVLWCTELERIFGFPVHYTDVSNMGRGARQKLLGRSWSVPVIRHLFAPLKDYFACE | binds |
| K777A-mutated MTase domain of human DNMT3B (residues 562–853) (domain or fragment, UniProt Q9UBC3-1 562-853, looked up, catalytic cysteine C651 covalently linked to the Zebularine of the DNA, also called K777A DNMT3B; source: E. coli BL21 DE3 (RIL), co-expressed with DNMT3L, purified (Ni-NTA, Heparin HP, SEC; after DNA cross-linking HiTrap Q XL, SEC); not shown: His6, N-terminal, cleaved; SUMO, N-terminal, cleaved) KLYPAIPAARRRPIRVLSLFDGIATGYLVLKELGIKVGKYVASEVCEESIAVGTVKHEGNIKYVNDVRNITKKNIEEWGPFDLVIGGSPCNDLSNVNPARKGLYEGTGRLFFEFYHLLNYSRPKEGDDRPFFWMFENVVAMKVGDKRDISRFLECNPVMIDAIKVSAAHRARYFWGNLPGMNRPVIASKNDKLELQDCLEYNRIAKLKKVQTITTASNSIKQGKNQLFPVVMNGKEDVLWCTELERIFGFPVHYTDVSNMGRGARQKLLGRSWSVPVIRHLFAPLKDYFACE | binds |
